We go through seven molecules from patent US20200317768A1 (published 2020).

Changes are numbered by the printed parent chain.

What all share (assay): SPR (Biacore), antibody captured, FcgR analyte
On the technique in general: Surface plasmon resonance follows binding to a sensor surface in real time, without labels.

The target in experiment [1] is T1, cynomolgus monkey FcγRIIa1 extracellular domain, C-terminal His-tag (cynomolgus monkey).
T1 construct: also called cyno FcγRIIa1; cynoFcgRIIa1
T1 chain: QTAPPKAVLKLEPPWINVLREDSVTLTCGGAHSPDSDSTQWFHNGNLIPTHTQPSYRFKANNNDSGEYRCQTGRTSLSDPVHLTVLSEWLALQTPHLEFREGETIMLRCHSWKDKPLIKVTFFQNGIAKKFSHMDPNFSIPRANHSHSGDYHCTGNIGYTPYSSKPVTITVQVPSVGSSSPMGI
How it is done:
(§1) The kinetic analysis of interactions between these antibodies and FcγR was carried out using BIACORE® T200 or BIACORE® 4000 (GE Healthcare). HBS-EP+ (GE Healthcare) was used as the running buffer, and the measurement temperature was set to 25° C. A chip produced by immobilizing Protein A. Protein A/G or mouse anti-human IgG kappa light chain (BD Biosciences) onto a Series S Sensor Chip CM4 or CM5 (GE Healthcare) by the amine-coupling method was used. […] After the measurement, the antibody captured on the chip was washed off by allowing reaction with 10 mM glycine-HCl, pH1.5 and 25 mM NaOH so that the chip was regenerated and used repeatedly. The sensorgrams obtained as measurement results were analyzed by the 1:1 Langmuir binding model using the BIACORE® Evaluation Software to calculate the binding rate constant ka (L/mol/s) and dissociation rate constant kd (l/s), and the dissociation constant KD (mol/L) was calculated from these values. […] Regarding such interactions, KD values were calculated using the following 1:1 binding model described in BIACORE® T100 Software Handbook BR1006-48 Edition AE.
(§2) The behavior of interacting molecules according to the 1:1 binding model on BIACORE® can be described by Equation 1: Req=C·R max/(KD+C)+RI, wherein, Req is a plot of steady-state binding levels to analyte concentration. C is concentration, RI is bulk refractive index contribution in the sample, and Rmax is analyte binding capacity of the surface. When this equation is rearranged, KD can be expressed as Equation 2: KD=C·Rmax/(Req−RI)−C. KD can be calculated by substituting the values of Rmax, RI, and C into Equation 1 or Equation 2. From the current measurement conditions, RI=0, C=2 μmol/L can be used.

For experiment [2], the target named is T2, cynomolgus monkey FcγRIIa2 extracellular domain, C-terminal His-tag (cynomolgus monkey).
T2 construct: also called cyno FcγRIIa2; cynoFcgRIIa2
T2 chain: T1 chain with P95T, T121A, I127K, A128S, K130N, D135N, R142Q
The method, then: as §1, §2

Experiment [3] addresses T3, cynomolgus monkey FcγRIIa3 extracellular domain, C-terminal His-tag (cynomolgus monkey).
T3 construct: also called cyno FcγRIIa3; cynoFcgRIIa3
T3 chain: T1 chain with P95T, T121A, A128S, H133P, D135N
How it is done:
as §1, §2

In experiment [4] the target is T4, cynomolgus monkey FcγRIIb extracellular domain, C-terminal His-tag (cynomolgus monkey).
T4 construct: also called cyno FcγRIIb; cynoFcγRIIb
T4 chain: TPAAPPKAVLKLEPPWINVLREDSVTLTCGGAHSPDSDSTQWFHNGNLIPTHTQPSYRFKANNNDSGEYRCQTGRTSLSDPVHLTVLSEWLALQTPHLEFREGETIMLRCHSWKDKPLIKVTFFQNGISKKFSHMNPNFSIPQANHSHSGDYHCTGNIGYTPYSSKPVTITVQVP
The method, then:
as §1, §2

The target of experiment [5] is T5, cynomolgus monkey FcγRIIIaS extracellular domain, C-terminal His-tag (cynomolgus monkey, UniProt Q8SPW2 21-206 at identity 1.00)).
T5 construct: also called cyno FcγRIIIaS; cynoFcγRIIIaS
T5 chain: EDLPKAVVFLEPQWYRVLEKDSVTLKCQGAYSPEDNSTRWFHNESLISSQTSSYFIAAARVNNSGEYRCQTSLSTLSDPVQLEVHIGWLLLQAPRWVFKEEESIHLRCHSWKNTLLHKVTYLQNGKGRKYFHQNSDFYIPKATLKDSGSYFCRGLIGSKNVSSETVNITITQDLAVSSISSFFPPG
The method, then:
as §1, §2

Experiment [6] has as its target T6, human FcγRIIaH extracellular domain, C-terminal His-tag (human, UniProt P12318 34-217).
T6 construct: also called human FcγRIIa (type H); FcgRIIaH
T6 sequence: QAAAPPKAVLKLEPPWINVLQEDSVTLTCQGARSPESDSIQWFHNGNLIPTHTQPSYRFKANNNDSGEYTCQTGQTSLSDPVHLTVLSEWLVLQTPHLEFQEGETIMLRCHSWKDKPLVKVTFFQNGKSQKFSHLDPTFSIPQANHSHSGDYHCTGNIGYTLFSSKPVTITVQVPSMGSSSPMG
How it is done: as §1, §2

In experiment [7] the target is T7, human FcγRIIaR extracellular domain, C-terminal His-tag (human, UniProt P12318 34-217).
T7 construct: also called human FcγRIIa (type R); FcgRIIaR
T7 chain: T6 sequence with H134R
How it is done: as §1, §2

Experiment [8] concerns the target T8, human FcγRIIb extracellular domain, C-terminal His-tag (human, UniProt P31994 43-217).
T8 construct: also called human FcgRIIb; FcgRIIb
T8 sequence: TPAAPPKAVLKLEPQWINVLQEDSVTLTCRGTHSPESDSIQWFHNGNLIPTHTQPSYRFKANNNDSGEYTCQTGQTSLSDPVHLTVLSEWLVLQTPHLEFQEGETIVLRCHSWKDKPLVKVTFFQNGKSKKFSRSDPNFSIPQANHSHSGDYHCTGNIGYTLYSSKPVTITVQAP
How it is done:
as §1, §2

Experiment [9] addresses T9, human FcγRIIIaV extracellular domain, C-terminal His-tag (human, UniProt P08637 17-208).
T9 construct: also called human FcgRIIIaV; FcgRIIIaV
The method, then: as §1, §2

T9 sequence (P08637 17-208 F176V): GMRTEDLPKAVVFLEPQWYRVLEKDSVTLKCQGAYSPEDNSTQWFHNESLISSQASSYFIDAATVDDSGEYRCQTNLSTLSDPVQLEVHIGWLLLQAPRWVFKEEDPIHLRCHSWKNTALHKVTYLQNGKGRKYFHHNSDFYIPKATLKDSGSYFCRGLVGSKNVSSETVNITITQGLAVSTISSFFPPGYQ

B1: M103205H795-MY205/M103202L889-SK1 (antibody, human IgG1, kappa)
heavy: QVTLKESGPVLVKPTETLTLTCTVSGIDLSHDDISWVRQAPGKGLEWVGIISYAGSTYYASWAKGRLTISKDTSKNQVVLTMTNMDPVDTATYYCARGVPAYSHGGDLWGQGTLVTVSSASTKGPSVFPLAPSSKSTSGGTAALGCLVKDYFPEPVTVSWNSGALTSGVHTFPAVLQSSGLYSLSSVVTVPSSSLGTQTYICNVNHKPSNTKVDKKVEPKSCDKTHTCPPCPAPELLNGPSVFLFPPKPKDTLMISRTPEVTCVVVDVSDEDPEVKFNWYVDGVEVHNAKTKPREELYNSTYRVVSVLTVLHQDWLNGKEYKCKVSNKALPKPIEKTISKAKGQPREPQVYTLPPSREEMTKNQVSLTCLVKGFYPSDIAVEWESNGQPENNYKTTPPVLDSDGSFFLYSKLTVDKSRWQQGNVFSCSVMHEALHNHYTQKSLSLSP
light: DIVMTQSPATLSLSPGERATLSCTSSQSVYHANWLSWFQQKPGQPPKLLIYWASTLAYGVPSRFSGSGSGTDFTLTISSLQPEDAATYYCAGGYGGGRYAFGQGTKVEIKRTVAAPSVFIFPPSDEQLKSGTASVVCLLNNFYPREAKVQWKVDNALQSGNSQESVTEQDSKDSTYSLSSTLTLSKADYEKHKVYACEVTHQGLSSPVTKSFNRGEC
notes: also called MS1032LO06-MY205
The term Kd denotes the concentration at which binding is half-saturated. Regarding B1, the Kd in [1] stood at 0.9 µM; in experiment [2], 1.1 µM; in [3], 30 µM; in experiment [4] it was 0.25 µM; in [5] it was 6 µM; in [6], 0.47 µM. The Kd turned out to be 1.3 µM in experiment [7], 0.56 µM in experiment [8] and 15 µM in experiment [9].

B2: M103205H795-MY209/M103202L889-SK1 (antibody, human IgG1, kappa)
heavy: B1 heavy with K328T
light: B1 light
notes: Substitutions introduced into M103205H795-SG1; expressed with M103202L889-SK1 as light chain
B2: the Kd in experiment [1] was determined as 0.83 µM; in experiment [2], 0.69 µM; in experiment [3], 19 µM; in experiment [4], 0.19 µM; in experiment [5], 2.2 µM; in experiment [6], 0.57 µM. Also, the Kd in experiment [7] is 0.68 µM; in experiment [8], 0.5 µM; in [9] it was 14 µM.

B3: M103205H795-MY207/M103202L889-SK1 (antibody, human IgG1, kappa)
heavy: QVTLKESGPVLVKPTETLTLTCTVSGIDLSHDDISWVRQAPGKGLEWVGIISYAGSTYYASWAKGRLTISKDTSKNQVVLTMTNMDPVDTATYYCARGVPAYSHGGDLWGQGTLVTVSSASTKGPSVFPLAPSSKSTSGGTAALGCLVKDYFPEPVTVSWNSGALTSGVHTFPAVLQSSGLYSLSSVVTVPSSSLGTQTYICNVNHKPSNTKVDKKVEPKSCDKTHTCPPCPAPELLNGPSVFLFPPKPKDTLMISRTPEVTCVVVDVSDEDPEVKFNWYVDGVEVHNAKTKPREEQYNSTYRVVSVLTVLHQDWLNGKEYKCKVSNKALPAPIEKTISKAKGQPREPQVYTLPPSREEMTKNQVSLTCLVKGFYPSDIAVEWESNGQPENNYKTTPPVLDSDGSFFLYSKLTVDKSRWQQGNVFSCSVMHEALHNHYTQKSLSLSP
light: B1 light
notes: as for B2
Turning to B3, the Kd in [1] came to 1.5 µM; in [2], 1.4 µM; in experiment [3], 69 µM; in experiment [4], 0.82 µM; in experiment [5], 4.1 µM; in experiment [6] it was 13 µM. Also, the Kd in experiment [7] amounted to 2.8 µM; in experiment [8], 1.6 µM; in experiment [9], 8 µM.

B4: M103205H795-MY210/M103202L889-SK1 (antibody, human IgG1, kappa)
heavy: B1 heavy with L297Q, K328T
light: B1 light
notes: as for B2
For B4, the Kd came to 0.95 µM in experiment [1]; 0.84 µM in experiment [2]; 23 µM in [3]; 0.25 µM in experiment [4]; 2.4 µM in experiment [5]; 0.88 µM in [6]. The results for the Kd in experiment [7], in [8] and in [9] were 0.014 µM, 0.98 µM and 51 µM, respectively.

B5: M103205H795-MY211/M103202L889-SK1 (antibody, human IgG1, kappa)
heavy: B1 heavy with S241V, L297Q, K328T
light: B1 light
notes: as for B2
With B5, the dissociation constant Kd in experiment [1] worked out at 0.75 µM; in experiment [2], 0.53 µM; in experiment [3] it was 2.7 µM; in [4], 0.47 µM; in [5] it was 5 µM; in [6], 1.1 µM. The Kd in [7] was found to be 13 µM; in experiment [8], 0.52 µM; in [9], 4.8 µM.

B6: M103205H795-MY206/M103202L889-SK1 (antibody, human IgG1, kappa)
heavy: B1 heavy with S241V
light: B1 light
notes: as for B2
Consider B6, for which the Kd was determined as 0.52 µM in experiment [1]; 0.79 µM in experiment [2]; 5 µM in experiment [3]; 0.45 µM in experiment [4]; 5.3 µM in [5]; 1 µM in experiment [6]. Also, the Kd in experiment [7] worked out at 1.4 µM; in experiment [8] it was 0.8 µM; in experiment [9] it was 8.2 µM.

B7: M103205H795-MY208/M103202L889-SK1 (antibody, human IgG1, kappa)
heavy: B1 heavy with K332A
light: B1 light
notes: as for B2
As for B7, the Kd in [1] came to 1.2 µM; in [2], 1.5 µM; in experiment [3] it was 5.7 µM; in experiment [4], 0.64 µM; in experiment [5] it was 2.8 µM; in experiment [6], 0.53 µM. The Kd stood at 21 µM in experiment [7], 12 µM in [8] and 10 µM in [9].
